{"source": "patent US20220033501A1", "key": {"[1]": {"target": "monkey TIM-3 on CHOK1 stable cell line (CHOK1-cTIM-3) (monkey)", "sequence (chain, as listed by the source limits assumed)": "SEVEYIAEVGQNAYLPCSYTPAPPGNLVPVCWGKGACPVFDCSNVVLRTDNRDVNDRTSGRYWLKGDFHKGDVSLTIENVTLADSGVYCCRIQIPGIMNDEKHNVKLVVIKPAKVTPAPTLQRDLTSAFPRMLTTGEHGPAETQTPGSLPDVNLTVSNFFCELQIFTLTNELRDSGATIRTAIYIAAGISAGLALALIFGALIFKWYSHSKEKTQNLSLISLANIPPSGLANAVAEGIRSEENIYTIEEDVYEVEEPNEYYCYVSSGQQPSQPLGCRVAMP", "assay": "FACS, CHOK1-cTIM-3 cells, 0 nM antibody"}, "[2]": {"target": "monkey TIM-3 on CHOK1 stable cell line (CHOK1-cTIM-3) (monkey)", "assay": "FACS, CHOK1-cTIM-3 cells, 8 nM antibody"}, "[3]": {"target": "human TIM-3 on CHOK1 stable cell line (CHOK1-hTIM-3) (human) (UniProt Q8TDQ0)", "sequence (Q8TDQ0 22-301 limits assumed)": "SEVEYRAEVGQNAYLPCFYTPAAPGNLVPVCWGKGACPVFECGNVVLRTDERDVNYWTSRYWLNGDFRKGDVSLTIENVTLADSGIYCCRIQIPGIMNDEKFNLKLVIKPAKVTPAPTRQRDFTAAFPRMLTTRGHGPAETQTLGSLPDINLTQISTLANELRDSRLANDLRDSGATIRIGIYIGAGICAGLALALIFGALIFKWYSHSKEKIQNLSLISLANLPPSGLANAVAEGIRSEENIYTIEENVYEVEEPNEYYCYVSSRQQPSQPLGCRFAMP", "assay": "FACS, CHOK1-hTIM-3 cells, 0 nM antibody"}, "[4]": {"target": "human TIM-3 on CHOK1 stable cell line (CHOK1-hTIM-3) (human) (UniProt Q8TDQ0)", "assay": "FACS, CHOK1-hTIM-3 cells, 8 nM antibody"}, "[5]": {"target": "human TIM-3 on CHOK1 stable cell line (CHOK1-hTIM-3) (human) (UniProt Q8TDQ0)", "assay": "FACS, CHOK1-hTIM-3 cells, 40 nM antibody"}, "[6]": {"target": "monkey TIM-3 on CHOK1 stable cell line (CHOK1-cTIM-3) (monkey)", "assay": "FACS, CHOK1-cTIM-3 cells, 1.6 nM antibody"}, "[7]": {"target": "human TIM-3 on CHOK1 stable cell line (CHOK1-hTIM-3) (human) (UniProt Q8TDQ0)", "assay": "FACS, CHOK1-hTIM-3 cells, 1.6 nM antibody"}, "[8]": {"target": "monkey TIM-3 on CHOK1 stable cell line (CHOK1-cTIM-3) (monkey)", "assay": "FACS, CHOK1-cTIM-3 cells, 0.32 nM antibody"}, "[9]": {"target": "human TIM-3 on CHOK1 stable cell line (CHOK1-hTIM-3) (human) (UniProt Q8TDQ0)", "assay": "FACS, CHOK1-hTIM-3 cells, 0.32 nM antibody"}, "[10]": {"target": "monkey TIM-3 on CHOK1 stable cell line (CHOK1-cTIM-3) (monkey)", "assay": "FACS, CHOK1-cTIM-3 cells, 0.013 nM antibody"}, "[11]": {"target": "human TIM-3 on CHOK1 stable cell line (CHOK1-hTIM-3) (human) (UniProt Q8TDQ0)", "assay": "FACS, CHOK1-hTIM-3 cells, 0.013 nM antibody"}, "[12]": {"target": "monkey TIM-3 extracellular domain protein with hFc tag (cTIM-3-hFc) (monkey)", "sequence (chain, as listed by the source)": "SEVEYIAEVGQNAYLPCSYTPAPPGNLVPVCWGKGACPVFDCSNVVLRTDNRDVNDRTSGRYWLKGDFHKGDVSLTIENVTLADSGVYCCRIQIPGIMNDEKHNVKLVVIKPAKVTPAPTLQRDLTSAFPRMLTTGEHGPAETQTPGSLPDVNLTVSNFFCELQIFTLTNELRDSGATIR", "assay": "ELISA, coated monkey TIM-3 ECD protein, 0 nM antibody"}, "[13]": {"target": "human TIM-3 extracellular domain protein with hFc tag (hTIM-3-hFc) (human) (UniProt Q8TDQ0)", "sequence (Q8TDQ0 22-200)": "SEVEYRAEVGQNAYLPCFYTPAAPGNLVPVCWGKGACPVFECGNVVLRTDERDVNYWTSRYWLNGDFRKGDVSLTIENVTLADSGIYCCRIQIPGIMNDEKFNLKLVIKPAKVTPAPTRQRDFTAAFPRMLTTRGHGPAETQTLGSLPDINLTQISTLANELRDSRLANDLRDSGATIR", "assay": "ELISA, coated human TIM-3 ECD protein, 0.0001 nM antibody"}, "[14]": {"target": "human TIM-3 extracellular domain protein with hFc tag (hTIM-3-hFc) (human) (UniProt Q8TDQ0)", "assay": "ELISA, coated human TIM-3 ECD protein, 0.0007 nM antibody"}, "[15]": {"target": "human TIM-3 extracellular domain protein with hFc tag (hTIM-3-hFc) (human) (UniProt Q8TDQ0)", "assay": "ELISA, coated human TIM-3 ECD protein, 0.0667 nM antibody"}, "[16]": {"target": "human TIM-3 extracellular domain protein with hFc tag (hTIM-3-hFc) (human) (UniProt Q8TDQ0)", "assay": "ELISA, coated human TIM-3 ECD protein, 6.6667 nM antibody"}, "[17]": {"target": "murine TIM-3 extracellular domain protein with hFc tag (mTIM-3-hFc) (mouse) (UniProt Q8VIM0)", "sequence (Q8VIM0 other isoform, or with tags, fused parts or gaps)": "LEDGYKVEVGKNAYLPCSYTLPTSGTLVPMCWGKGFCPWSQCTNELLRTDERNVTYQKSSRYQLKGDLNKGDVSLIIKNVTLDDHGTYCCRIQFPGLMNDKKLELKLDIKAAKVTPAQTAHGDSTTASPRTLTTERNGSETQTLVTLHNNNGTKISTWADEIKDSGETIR", "assay": "ELISA, coated mouse TIM-3 ECD protein, 0.0007 nM antibody"}, "[18]": {"target": "murine TIM-3 extracellular domain protein with hFc tag (mTIM-3-hFc) (mouse) (UniProt Q8VIM0)", "assay": "ELISA, coated mouse TIM-3 ECD protein, 0.0067 nM antibody"}, "[19]": {"target": "murine TIM-3 extracellular domain protein with hFc tag (mTIM-3-hFc) (mouse) (UniProt Q8VIM0)", "assay": "ELISA, coated mouse TIM-3 ECD protein, 0.0667 nM antibody"}, "[20]": {"target": "murine TIM-3 extracellular domain protein with hFc tag (mTIM-3-hFc) (mouse) (UniProt Q8VIM0)", "assay": "ELISA, coated mouse TIM-3 ECD protein, 0.6667 nM antibody"}, "[21]": {"target": "murine TIM-3 extracellular domain protein with hFc tag (mTIM-3-hFc) (mouse) (UniProt Q8VIM0)", "assay": "ELISA, coated mouse TIM-3 ECD protein, 66.667 nM antibody"}, "[22]": {"target": "monkey TIM-3 extracellular domain protein with hFc tag (cTIM-3-hFc) (monkey)", "assay": "ELISA, coated monkey TIM-3 ECD protein, 0.0001 nM antibody"}, "[23]": {"target": "monkey TIM-3 extracellular domain protein with hFc tag (cTIM-3-hFc) (monkey)", "assay": "ELISA, coated monkey TIM-3 ECD protein, 0.0007 nM antibody"}, "[24]": {"target": "monkey TIM-3 extracellular domain protein with hFc tag (cTIM-3-hFc) (monkey)", "assay": "ELISA, coated monkey TIM-3 ECD protein, 0.0067 nM antibody"}, "[25]": {"target": "monkey TIM-3 extracellular domain protein with hFc tag (cTIM-3-hFc) (monkey)", "assay": "ELISA, coated monkey TIM-3 ECD protein, 6.6667 nM antibody"}, "[26]": {"target": "monkey TIM-3 extracellular domain protein with hFc tag (cTIM-3-hFc) (monkey)", "assay": "ELISA, coated monkey TIM-3 ECD protein, 66.667 nM antibody"}, "[27]": {"target": "human TIM-3 extracellular domain protein with hFc tag (hTIM-3-hFc) (human) (UniProt Q8TDQ0)", "assay": "FACS, blocking of hTIM-3-hFc binding to phosphatidylserine on apoptotic Jurkat cells, 0.274 nM antibody"}, "[28]": {"target": "human TIM-3 extracellular domain protein with hFc tag (hTIM-3-hFc) (human) (UniProt Q8TDQ0)", "assay": "FACS, blocking of hTIM-3-hFc binding to phosphatidylserine on apoptotic Jurkat cells, 0.823 nM antibody"}, "[29]": {"target": "human TIM-3 extracellular domain protein with hFc tag (hTIM-3-hFc) (human) (UniProt Q8TDQ0)", "assay": "FACS, blocking of hTIM-3-hFc binding to phosphatidylserine on apoptotic Jurkat cells, 2.469 nM antibody"}, "[30]": {"target": "human TIM-3 extracellular domain protein with hFc tag (hTIM-3-hFc) (human) (UniProt Q8TDQ0)", "assay": "FACS, blocking of hTIM-3-hFc binding to phosphatidylserine on apoptotic Jurkat cells, 7.407 nM antibody"}, "[31]": {"target": "human TIM-3 extracellular domain protein with hFc tag (hTIM-3-hFc) (human) (UniProt Q8TDQ0)", "assay": "FACS, blocking of hTIM-3-hFc binding to phosphatidylserine on apoptotic Jurkat cells, 22.222 nM antibody"}}}
{"substance": "human IgG control (antibody)", "values": [{"measurement": "Mean fluorescence intensity", "setting": "[1]", "value": 2.9}, {"measurement": "Mean fluorescence intensity", "setting": "[2]", "value": 3.7}, {"measurement": "Mean fluorescence intensity", "setting": "[3]", "value": 2.8}, {"measurement": "Mean fluorescence intensity", "setting": "[4]", "value": 4.5}, {"measurement": "Mean fluorescence intensity", "setting": "[5]", "value": 5}, {"measurement": "Mean fluorescence intensity", "setting": "[6]", "value": 3.2}, {"measurement": "Mean fluorescence intensity", "setting": "[7]", "value": 3.1}, {"measurement": "Mean fluorescence intensity", "setting": "[8]", "value": 3.1}, {"measurement": "Mean fluorescence intensity", "setting": "[9]", "value": 2.9}, {"measurement": "Mean fluorescence intensity", "setting": "[10]", "value": 2.8}, {"measurement": "Mean fluorescence intensity", "setting": "[11]", "value": 2.8}, {"measurement": "OD450", "setting": "[12]", "value": 0.13}, {"measurement": "OD450", "setting": "[13]", "value": 0.07}, {"measurement": "OD450", "setting": "[14]", "value": 0.07}, {"measurement": "OD450", "setting": "[15]", "value": 0.07}, {"measurement": "OD450", "setting": "[16]", "value": 0.08}, {"measurement": "OD450", "setting": "[17]", "value": 0.21}, {"measurement": "OD450", "setting": "[18]", "value": 0.21}, {"measurement": "OD450", "setting": "[19]", "value": 0.21}, {"measurement": "OD450", "setting": "[20]", "value": 0.22}, {"measurement": "OD450", "setting": "[21]", "value": 0.73}, {"measurement": "OD450", "setting": "[22]", "value": 0.13}, {"measurement": "OD450", "setting": "[23]", "value": 0.14}, {"measurement": "OD450", "setting": "[24]", "value": 0.13}, {"measurement": "OD450", "setting": "[25]", "value": 0.18}, {"measurement": "OD450", "setting": "[26]", "value": 0.43}, {"measurement": "Inhibition ratio (%)", "setting": "[27]", "value": -20, "unit": "%"}, {"measurement": "Inhibition ratio (%)", "setting": "[28]", "value": 2.8, "unit": "%"}, {"measurement": "Inhibition ratio (%)", "setting": "[29]", "value": -3.9, "unit": "%"}, {"measurement": "Inhibition ratio (%)", "setting": "[30]", "value": 0.5, "unit": "%"}, {"measurement": "Inhibition ratio (%)", "setting": "[31]", "value": -2.8, "unit": "%"}]}
